We go through 8 molecules from paper PMC4423959, “The Nucleoid Occlusion SlmA Protein Accelerates the Disassembly of the FtsZ Protein Polymers without Affecting Their GTPase Activity” (PLoS ONE, 2015).

To fix the notation:
T1: SlmA (UniProt P0C093 1-198)
T1 sequence: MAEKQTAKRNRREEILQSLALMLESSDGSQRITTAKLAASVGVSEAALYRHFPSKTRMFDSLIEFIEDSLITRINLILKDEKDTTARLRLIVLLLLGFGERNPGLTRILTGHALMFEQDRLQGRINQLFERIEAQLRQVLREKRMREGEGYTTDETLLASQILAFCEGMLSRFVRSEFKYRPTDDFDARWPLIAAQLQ

B1: SBS12 (dsDNA)
DNA 1: CGCGAAGTGAACGCTAACTCACTG
DNA 2: CAGTGAGTTAGCGTTCACTTCGCG
B2: SlmA (free, without DNA) (natural protein, E. coli, UniProt P0C093 1-198, looked up)
chain: T1 sequence
notes: Nucleoid occlusion factor SlmA of E. coli; Dimer by SEC-MALLS in the absence of DNA; also called free SlmA; source: purified and cleaved from SUMO protein essentially as described in [31]
B3: SlmA·SBS complex (four SlmA monomers, as two dimers, bound to one SBScons DNA) (complex, E. coli, UniProt P0C093 1-198, looked up)
chain: T1 sequence
notes: Nucleoid occlusion factor SlmA of E. coli; same chain as m2; 4:1 SlmA:SBS by sedimentation velocity and SEC-MALLS; also called SlmA SBScons; SlmA:SBScons
B4: SBS17 (dsDNA)
DNA 1: TCAACGTTAGTGACCATTTACTTACTTTTG
DNA 2: CAAAAGTAAGTAAATGGTCACTAACGTTGA
B5: E. coli FtsZ (natural protein, UniProt P0A9A6 1-383, looked up)
chain: MFEPMELTNDAVIKVIGVGGGGGNAVEHMVRERIEGVEFFAVNTDAQALRKTAVGQTIQIGSGITKGLGAGANPEVGRNAADEDRDALRAALEGADMVFIAAGMGGGTGTGAAPVVAEVAKDLGILTVAVVTKPFNFEGKKRMAFAEQGITELSKHVDSLITIPNDKLLKVLGRGISLLDAFGAANDVLKGAVQGIAELITRPGLMNVDFADVRTVMSEMGYAMMGSGVASGEDRAEEAAEMAISSPLLEDIDLSGARGVLVNITAGFDLRLDEFETVGNTIRAFASDNATVVIGTSLDPDMNDELRVTVVATGIGMDKRPEITLVTNKQVQQPVMDRYQQHGMAPLTQEQKPVAKVVNDNAPQTAKEPDYLDIPAFLRKQAD
notes: Cell division protein FtsZ of E. coli; The nucleotide state (GDP: oligomers); In AUC and FCS a tracer share of FtsZ labelled on amine groups with Alexa Fluor 488 (FtsZ-Alexa 488) was mixed with unlabelled FtsZ; also called FtsZ-GDP; FtsZ-GTP; source: isolated as described elsewhere [40]
B6: SBScons (dsDNA)
DNA 1: AAGTAAGTGAGCGCTCACTTACGT
DNA 2: ACGTAAGTGAGCGCTCACTTACTT

Data set [1] deals with FtsZ (Escherichia coli) (UniProt P0A9A6). The following applies: cited from earlier work.
Data set [2] has the same target. The note with it: cited from earlier work. This is another data set of the same source.
Data set [3] has as its target T1, SlmA. Briefly: fluorescence anisotropy; 300 mM KCl, 2 mM MgCl2; apparent Kd, 4:1 model; dG 17.6 ± 0.2 kcal/mol; 50 mM Tris-HCl, 300 mM KCl, 2 mM MgCl2, pH 7.5, 20 C; 10 nM labeled SBS in SlmA anisotropy titrations. The note with it: protein: recombinant; tags: SUMO tag cleaved off; chain copies: 4; label: 5' fluorescein on sense strand (anisotropy); blunt.
Data set [4] deals with the molecule itself. Briefly: SEC-MALS; Superdex 200 10/300 GL, 0.5 mL/min, 20°C, working buffer (50 mM Tris-HCl, 300 mM KCl, 2 mM MgCl2, pH 7.5); SlmA 10 μM (also 6 μM), no DNA. In general terms: SEC sorts molecules by how far they enter the pores of the column.
Data set [5] concerns the target B5. Briefly: fluorescence polarisation; anisotropy titration of FtsZ with 1 mM GTP + regeneration system into SlmA 2 μM with fluorescein-SBScons 0.2 μM (also 1 μM and 10 nM); 20°C, working buffer (50 mM Tris-HCl, 300 mM KCl, 2 mM MgCl2, pH 7.5); 1:1 model, apparent Kd in FtsZ monomer concentration. The following applies: both partners purified. (In fluorescence polarisation assays a small probe gives low polarisation when free and higher when bound to something large.)

Data set [6] deals with T1, SlmA. As to the kind of experiment: fluorescence anisotropy; 300 mM KCl, 2 mM MgCl2; apparent Kd, 4:1 model; dG 18.0 ± 0.2 kcal/mol; 50 mM Tris-HCl, 300 mM KCl, 2 mM MgCl2, pH 7.5, 20 C; 10 nM labeled SBS in SlmA anisotropy titrations. The following applies: protein: recombinant; tags: SUMO tag cleaved off; chain copies: 4; label: fluorescein on T at position 27 from the 5' end of the antisense strand; blunt.

Data set [7] deals with the molecule itself. As to the kind of experiment: AUC; sedimentation velocity, 48,000 rpm, 20°C, working buffer (50 mM Tris-HCl, 300 mM KCl, 2 mM MgCl2, pH 7.5); FtsZ-GDP 30 μM total with 6 μM FtsZ-Alexa 488 as tracer, without or with SlmA 15 μM and SBScons 4 μM.
Data set [8] has as its target T1, SlmA. Briefly: fluorescence anisotropy; 300 mM KCl, 2 mM MgCl2; apparent Kd, 4:1 model; dG 20.3 ± 0.2 kcal/mol; 50 mM Tris-HCl, 300 mM KCl, 2 mM MgCl2, pH 7.5, 20 C; 10 nM labeled SBS in SlmA anisotropy titrations. The note with it: protein: recombinant; tags: SUMO tag cleaved off; chain copies: 4; label: 5' fluorescein on sense strand (anisotropy); blunt.

Where two headings read alike, the source gives them in different places.

Turning to SlmA (from UniProt P0C093), the Kd in data set [1] is 200 nM.

As for MinC (from UniProt P18196), the Kd in data set [2] was 8000 nM.

Regarding B1, in data set [3], the Kd was determined as 270 ± 50 nM.

As usually defined, the stoichiometry N is a count of units in the complex or per binding partner. For B2, in data set [4], the “stoichiometry N” value turned out to be 2.

Turning to B3, the Kd in data set [5] is 12000 nM.

On to B4, for which, in data set [6], the Kd worked out at 190 ± 30 nM.

As to B5, in data set [7], the binding result is recorded as “binds”.

With B6, the Kd in data set [8] was 25 ± 4 nM.
